{"source": "paper PMC11153135", "target": "purified human SLAMF4 (hSLAMF4) protein, recombinant (human) (UniProt Q9BZW8)", "sequence (Q9BZW8 22-229)": "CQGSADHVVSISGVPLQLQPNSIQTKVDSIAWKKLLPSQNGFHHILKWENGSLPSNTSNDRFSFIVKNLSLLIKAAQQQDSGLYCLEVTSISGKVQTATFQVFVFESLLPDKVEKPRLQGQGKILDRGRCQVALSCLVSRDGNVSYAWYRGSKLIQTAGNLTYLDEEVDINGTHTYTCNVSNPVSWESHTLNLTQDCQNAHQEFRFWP", "assay": "MST; Monolith NT.115; GST–lytC_22 in a gradient (11 to 0.34375 μg μl^-1) mixed 1:1 (vol/vol) with 0.2 μg μl^-1 fluorescently pre-labelled recombinant Slamf4, 30 min at room temperature; medium MST power; apparent"}
{"substance": "GST–lytC_22 (recombinant glutathione S-transferase-tagged N-acetylmuramoyl-L-alanine amidase lytC_22 of P. anaerobius) (natural protein)", "values": [{"measurement": "Kd", "value": 40.1, "unit": "nM"}]}
